The labels stand for the following.
B1: Dynamin-binding protein, residues 242 to 304; numbered along this chain, Q6XZF7 (parent)
chain: EEPGTYGVALYRFQALEPNELDFEVGDKIRILATLEDGWLEGSLKGRTGIFPYRFVKLCPDTR

± gives the uncertainty stated by the source.

Variants of B1 are the subject of this series. Kind of series: abundance fitness (aPCA) (normalised: wild type 0, dead -1); higher = more abundant; growth selection in yeast, the domain comes from the species named. Conditions: Homo sapiens.
Turning to E17V, the abundance fitness was -0.4 ± 0.063.

Turning to E17L, the abundance fitness was -0.011 ± 0.05.

Regarding E17C, the abundance fitness is -0.259 ± 0.057.

E17Y: the abundance fitness was -0.234 ± 0.066.

In the case of E17Q, the abundance fitness stood at 0.189 ± 0.14.

As for P3Q, the abundance fitness is -0.026 ± 0.14.

With P3G, the abundance fitness was -0.222 ± 0.08.

As to P3V, the abundance fitness was -0.169 ± 0.068.

As to P3F, the abundance fitness was 0.059 ± 0.082.

With P3C, the abundance fitness is -0.221 ± 0.077.

For C59D, the abundance fitness was -0.198 ± 0.066.

Consider C59R, for which the abundance fitness is -0.339 ± 0.062.

Consider C59I, for which the abundance fitness came out at 0.038 ± 0.061.

Take C59N: the abundance fitness was -0.393 ± 0.09.

For C59F, the abundance fitness was found to be 0.006 ± 0.053.

For the variant C59T, the abundance fitness was -0.192 ± 0.085.

On to G38H, for which the abundance fitness was -0.454 ± 0.13.

As for G38M, the abundance fitness is -0.803 ± 0.23.

On to G38P, for which the abundance fitness was -1.06 ± 0.34.

P52Q: the abundance fitness was -0.912 ± 0.49.

Turning to P52F, the abundance fitness was -0.826 ± 0.11.

As for P52I, the abundance fitness is -0.741 ± 0.11.

On to V25Y, for which the abundance fitness is -0.463 ± 0.086.

In the case of V25G, the abundance fitness was -0.539 ± 0.064.

Consider V25E, for which the abundance fitness was -0.475 ± 0.15.

For the variant V25R, the abundance fitness is -0.223 ± 0.059.

On to V25A, for which the abundance fitness is -0.089 ± 0.058.

In the case of V25P, the abundance fitness is -0.14 ± 0.081.

Consider V25Q, for which the abundance fitness is -0.548 ± 0.22.

In the case of F23W, the abundance fitness was -0.63 ± 0.16.

Consider F23Y, for which the abundance fitness is -0.688 ± 0.1.

Regarding F23H, the abundance fitness is -0.787 ± 0.14.

For F23I, the abundance fitness was -0.165 ± 0.062.

Consider L58N, for which the abundance fitness is -0.914 ± 0.12.

L58T: the abundance fitness was -0.301 ± 0.072.

Regarding L58Q, the abundance fitness is -0.656 ± 0.23.

As for R30N, the abundance fitness is -0.306 ± 0.069.

As to R30L, the abundance fitness is -0.148 ± 0.089.

Regarding R30S, the abundance fitness was -0.41 ± 0.062.

As to L40I, the abundance fitness was -0.244 ± 0.056.

Regarding L40N, the abundance fitness was -0.784 ± 0.11.

On to L40Y, for which the abundance fitness is -0.259 ± 0.061.

Regarding L40Q, the abundance fitness is -0.312 ± 0.2.

As to L40V, the abundance fitness was found to be 0.092 ± 0.045.

On to G42L, for which the abundance fitness was -0.45 ± 0.1.

Regarding G42Y, the abundance fitness was -0.924 ± 0.14.

With G42A, the abundance fitness was -0.702 ± 0.14.

G42P: the abundance fitness is -0.872 ± 0.29.

With G42F, the abundance fitness was -0.745 ± 0.1.

With Y6R, the abundance fitness is -0.712 ± 0.1.

As for Y6C, the abundance fitness was -0.502 ± 0.083.

Turning to Y6I, the abundance fitness was -0.123 ± 0.053.

Take Y6S: the abundance fitness is -0.672 ± 0.073.

For the variant Y6F, the abundance fitness stood at 0.071 ± 0.048.

With Y6Q, the abundance fitness is -0.927 ± 0.31.

With Y6V, the abundance fitness was -0.135 ± 0.052.

Turning to L10I, the abundance fitness was 0.028 ± 0.059.

For L10E, the abundance fitness is -0.655 ± 0.25.

As to L10V, the abundance fitness is -0.252 ± 0.054.

L10Q: the abundance fitness was -0.564 ± 0.21.

Regarding L10C, the abundance fitness was -0.477 ± 0.073.

With L10S, the abundance fitness was -0.457 ± 0.065.

L21Y: the abundance fitness is -1.03 ± 0.26.

Turning to L21C, the abundance fitness was -0.851 ± 0.1.

For the variant L21K, the abundance fitness was -0.744 ± 0.42.

In the case of L21Q, the abundance fitness was -0.455 ± 0.2.

As for L21P, the abundance fitness is -0.782 ± 0.19.

In the case of L21M, the abundance fitness was -0.852 ± 0.32.

For P60C, the abundance fitness is -0.15 ± 0.063.

For P60F, the abundance fitness was -0.149 ± 0.061.

With P60Y, the abundance fitness was -0.113 ± 0.062.

Consider P60M, for which the abundance fitness was -0.317 ± 0.14.

As for P60G, the abundance fitness was 0.003 ± 0.049.

On to P60R, for which the abundance fitness is -0.245 ± 0.063.

For the variant W39A, the abundance fitness was -0.56 ± 0.085.

As for W39H, the abundance fitness is -0.749 ± 0.13.

With W39Q, the abundance fitness is -0.285 ± 0.17.

For the variant W39F, the abundance fitness was -0.168 ± 0.073.

I29C: the abundance fitness is -0.839 ± 0.11.

With I29V, the abundance fitness is -0.533 ± 0.072.

As for I29W, the abundance fitness is -0.823 ± 0.37.

Consider I29P, for which the abundance fitness was -0.35 ± 0.11.

For I29L, the abundance fitness was -0.573 ± 0.093.

As for I29F, the abundance fitness was -0.561 ± 0.078.

I29M: the abundance fitness was -0.735 ± 0.24.

Turning to F13Q, the abundance fitness was -0.212 ± 0.2.

In the case of F13G, the abundance fitness was -0.677 ± 0.085.

Turning to F13Y, the abundance fitness was 0.213 ± 0.047.

Turning to F13V, the abundance fitness is -0.71 ± 0.076.

For F13R, the abundance fitness worked out at 0.11 ± 0.06.

Turning to F13K, the abundance fitness was -0.207 ± 0.15.

As for F13T, the abundance fitness was -0.831 ± 0.15.

In the case of F13M, the abundance fitness is -0.072 ± 0.11.

Turning to F13D, the abundance fitness was -0.585 ± 0.086.

For the variant T34C, the abundance fitness is -0.323 ± 0.055.

Turning to T34E, the abundance fitness is -0.038 ± 0.12.

Consider T34R, for which the abundance fitness is -0.196 ± 0.056.

Take T34V: the abundance fitness is -0.192 ± 0.048.

Turning to T34I, the abundance fitness was -0.168 ± 0.062.

For the variant T34D, the abundance fitness was -0.114 ± 0.052.

For L35S, the abundance fitness is -0.241 ± 0.051.

Consider L35R, for which the abundance fitness worked out at 0.13 ± 0.052.

For the variant L35W, the abundance fitness is -0.642 ± 0.21.

For the variant L35D, the abundance fitness was -0.664 ± 0.087.

With L35M, the abundance fitness was -0.413 ± 0.19.

On to L35T, for which the abundance fitness was -0.339 ± 0.082.

As for L35V, the abundance fitness was -0.203 ± 0.05.

Consider L35G, for which the abundance fitness is -0.374 ± 0.055.

L35F: the abundance fitness is -0.315 ± 0.071.

Turning to L35N, the abundance fitness was -0.544 ± 0.087.

With L35H, the abundance fitness is -0.114 ± 0.071.

For N19M, the abundance fitness was -0.494 ± 0.31.

For the variant F55R, the abundance fitness is -0.621 ± 0.049.

In the case of F55K, the abundance fitness is -0.748 ± 0.14.

For F55Y, the abundance fitness is 0.079 ± 0.034.

For the variant F55P, the abundance fitness is -0.818 ± 0.074.

Take D27C: the abundance fitness was -0.811 ± 0.099.

Take D27V: the abundance fitness was -0.934 ± 0.12.

With D27E, the abundance fitness is -0.316 ± 0.15.

Take D27Y: the abundance fitness was -0.587 ± 0.09.

Regarding D27N, the abundance fitness is -0.424 ± 0.086.

For D27W, the abundance fitness is -0.485 ± 0.16.

Take D27M: the abundance fitness is -0.537 ± 0.24.

Consider D27K, for which the abundance fitness is -0.902 ± 0.49.

For the variant G4F, the abundance fitness was 0.009 ± 0.051.

As to G4E, the abundance fitness was 0.622 ± 0.14.

On to G4C, for which the abundance fitness was -0.135 ± 0.057.

Take G4H: the abundance fitness came to 0.131 ± 0.066.

Take G4T: the abundance fitness was 0.103 ± 0.077.

For G4I, the abundance fitness stood at 0.078 ± 0.064.

With G4Y, the abundance fitness was -0.044 ± 0.059.

Consider E36L, for which the abundance fitness was -0.698 ± 0.1.

Consider E36Q, for which the abundance fitness is -0.312 ± 0.24.

E36I: the abundance fitness was -1.02 ± 0.16.

As to E36S, the abundance fitness was -0.212 ± 0.054.

Consider E36R, for which the abundance fitness is -0.331 ± 0.062.

As for E36K, the abundance fitness is -0.099 ± 0.12.

Regarding E36A, the abundance fitness came out at 0.027 ± 0.063.

As to I50T, the abundance fitness was -0.306 ± 0.082.

Take I50M: the abundance fitness was -0.298 ± 0.12.

Consider F51E, for which the abundance fitness is -0.854 ± 0.26.

Consider F51P, for which the abundance fitness was -0.524 ± 0.14.

For F51I, the abundance fitness was -0.752 ± 0.1.

Regarding F51D, the abundance fitness is -0.862 ± 0.17.

In the case of F51L, the abundance fitness was -0.492 ± 0.079.

For F51W, the abundance fitness is -0.59 ± 0.16.

With F51N, the abundance fitness is -0.791 ± 0.094.

In the case of T62N, the abundance fitness is 0.105 ± 0.052.

In the case of T62R, the abundance fitness is -0.046 ± 0.065.

With T62P, the abundance fitness worked out at 0.079 ± 0.06.

For the variant T62V, the abundance fitness is -0.04 ± 0.055.

In the case of T62H, the abundance fitness stood at 0.044 ± 0.054.

Consider T62L, for which the abundance fitness is -0.214 ± 0.058.

With R47Q, the abundance fitness is -0.588 ± 0.25.

As to R47L, the abundance fitness is -0.453 ± 0.084.

For the variant R47C, the abundance fitness is -0.578 ± 0.086.

For the variant R47P, the abundance fitness is -1.09 ± 0.4.

On to R47V, for which the abundance fitness is -0.477 ± 0.065.

Take R47D: the abundance fitness was -0.743 ± 0.13.

G26V: the abundance fitness is -0.844 ± 0.086.

G26L: the abundance fitness is -0.598 ± 0.087.

For G26T, the abundance fitness is -0.831 ± 0.14.

For the variant T48F, the abundance fitness is -0.49 ± 0.067.

Regarding T48L, the abundance fitness was -0.436 ± 0.063.

Take T48Q: the abundance fitness is -0.203 ± 0.12.

Consider T48W, for which the abundance fitness was -0.977 ± 0.29.

Consider G7W, for which the abundance fitness is -1.27 ± 0.41.
